Patent publication US20260227403A1 (HENRY M JACKSON FOUNDATION FOR THE ADVANCEMENT OF MILITARY …, published 2026)

Key:
Experiment in all cases: ELISA: 1 µg peptide coated per well, 29E4 at 20 ng/mL, HRP goat anti-rabbit Ig 1:16,000, ABS 450 nm, duplicates [CONT. 1]
[1] = molecular target: T1, peptide P38 (QRQMSEPNIPFPPQGFK) (human)
T1 construct: C-terminal truncation of the immunogenic peptide P1
T1 peptide: QRQMSEPNIPFPPQGFK

P49 = molecular target: T2, P49
T2 construct: C-terminal truncation of P1
T2 peptide: QRQMSEPNIPFPPQ

P50 = molecular target: T3, P50
T3 construct: C-terminal truncation of P1
T3 peptide: QRQMSEPNIPFPP

P34 = molecular target: T4, P34
T4 construct: C-terminal truncation of P1
T4 peptide: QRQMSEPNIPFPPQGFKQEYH

P35 = molecular target: T5, P35
T5 construct: C-terminal truncation of P1
T5 peptide: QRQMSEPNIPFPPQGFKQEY

P37 = molecular target: T6, P37
T6 construct: C-terminal truncation of P1
T6 peptide: QRQMSEPNIPFPPQGFKQ

P31 = molecular target: T7, P31
T7 construct: C-terminal truncation of P1
T7 peptide: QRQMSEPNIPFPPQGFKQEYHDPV

P39 = molecular target: T8, P39
T8 construct: N-terminal truncation of P1

peptide P40 (…) = molecular target: T9, peptide P40 (…) (human)
T9 construct: N-terminal truncation of the immunogenic peptide P1

P36 = molecular target: T10, P36
T10 construct: C-terminal truncation of P1
T10 peptide: QRQMSEPNIPFPPQGFKQE

P33 = molecular target: T11, P33
T11 construct: C-terminal truncation of P1
T11 peptide: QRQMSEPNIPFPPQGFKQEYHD

P42 = molecular target: T12, P42
T12 construct: N-terminal truncation of P1
T12 peptide: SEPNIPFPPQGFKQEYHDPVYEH

P32 = molecular target: T13, P32
T13 construct: C-terminal truncation of P1
T13 peptide: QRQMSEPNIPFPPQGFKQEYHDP

P48 = molecular target: T14, P48
T14 construct: C-terminal truncation of P1
T14 peptide: QRQMSEPNIPFPPQG

P29 = molecular target: T15, P29
T15 construct: C-terminal truncation of P1

P30 = molecular target: T16, P30
T16 construct: C-terminal truncation of P1

P41 = molecular target: T17, P41
T17 construct: N-terminal truncation of P1
T17 peptide: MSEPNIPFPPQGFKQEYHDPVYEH

binding result [1]: binds
binding result (P49): binds
binding result (P50): binds
binding result (P34): binds
binding result (P35): binds
binding result (P37): binds
binding result (P31): binds
binding result (P39): binds
binding result (peptide P40 (…)): binds
binding result (P36): binds
binding result (P33): binds
binding result (P42): binds
binding result (P32): binds
binding result (P48): binds
binding result (P29): binds
binding result (P30): binds
binding result (P41): binds
B1: ETV1 rabbit monoclonal antibody (29E4) (antibody, V domains shown)
VH: QELEESGGDLVKPGASLTLTCTASGFFFSAENHICWVRQAPGKGLEWIGCVYIGSYVGGSGDPYYASWAKGRFTISKTSSTTVTLQMSSLTAADTATYFCARDLGSLWGPGTLVTVSS
VL: DVVMTQTASSVSAAVGGTVTIACQSSQSVYDNNNLAWFQQKPGQPPKRLIYSASTLASGVSSRFKGSGYGTQFTLTISDVQCDDAATYYCVGAFSGYIFVFGGGTEVVVK
notes: constant regions are not; also called 29E4 mAb; ETV1 29E4 mAb
